Substitutions are numbered along the chain they refer to.
B1: TM-72: anti-TMEM106B monoclonal antibody; VH SEQ ID NO: 477, VL SEQ ID NO: 512 (antibody, V domains shown)
VH: QVQLQQPGAELVKPGTSVKLSCKASGSTFTNYWMHWVMQRPGQGLEWIGNIDPSDSDTHYNQKFKDRAKLTVDKSSSTAYMQLSGLTSEDSAVYYCARSRGGYYDYGEAMDYWGQGTSVTVSS
VL: DIVMTQAAPSVPVTPGESVSISCRSSKSLLHTNGNTYLFWFIQRPGQSPHLLIYRKSNLASGVPDRFSGSGSGTAFTLRISRVEAEDVGVYYCMQHLEYPFTFGSGTKLEIK
modifications: Variable Heavy Chain -- TM-72; Variable Light Chain -- TM-71, TM-72
B2: TM-78: anti-TMEM106B monoclonal antibody; VH SEQ ID NO: 483, VL SEQ ID NO: 518 (antibody, V domains shown)
VH: QVQLQQPGAELVKPGASVKLSCKASGYTFTNHWMHWVRQRPGQGLEWIGNIDPSDSDTHYNHKFKDKATLIVDKSSSTAYLQLSSLTSEDSAVFYCARSRGGYYDYGEAMDYWGQGTSVTVSS
VL: B1 VL with A8T, V11I, T32V, I42L, H50Q, K56M
modifications: Variable Heavy Chain -- TM-78; Variable Light Chain -- TM-78
B3: TM-80: anti-TMEM106B monoclonal antibody; VH SEQ ID NO: 485, VL SEQ ID NO: 520 (antibody, V domains shown)
VH: QVQLQQPGAELVKPGASVKLSCKASGYTFTTFWMHWVKQRPGQGLEWIGNIDPSDSETHYNQEFKDKATLTVDRSSNTAYMQLSSLTSEDSAVYYCARSSNWDNFDYWGQGTAVTVSS
VL: DIVMTQAAPSVPVTPGESVSISCRSSQSLLHVNGHTYLYWFLQRPGQSPQLLIYRMSNLASGVPDRFSGSGSGTVFTLRISRVETEDVGIYYCMQHLQYPFTFGSGTKLEIK
modifications: Variable Heavy Chain -- TM-80; Variable Light Chain -- TM-80

Molecular target: GST-TMEM106B (truncated, comprising amino acids 122-210 of SEQ ID NO:1) (Homo sapiens, UniProt Q9NUM4)
Sequence (Q9NUM4 122-210): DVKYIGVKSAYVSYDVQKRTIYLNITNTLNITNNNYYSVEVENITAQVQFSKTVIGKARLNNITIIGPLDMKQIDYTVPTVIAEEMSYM
Assay: Pre-mix epitope binning of anti-TMEM106B antibodies (Carterra / Lake Pharma)
Assay type: binding
Set-up: key to epitope bin: Bin 1: competes for binding to the same or overlapping TMEM106B region as the TM1, TM17, TM22, TM26, TM79, and/or TM82 antibodies; Bin 2: competes for binding to the same or overlapping TMEM106B region as the TM3, TM9, TM10, TM11, TM12, TM13, TM18, TM19, TM21, TM24, TM25, TM32, TM35, TM37, TM42, TM45, TM48, TM54, TM59, TM60, TM61, and/or TM76 antibodies; Bin 3: competes for binding to the same or overlapping TMEM106B region as the TM7, TM15, TM83, and/or TM84 antibodies; Bin 4: competes for binding to the same or overlapping TMEM106B region as the TMS, TM28, TM29, TM30, TM63, TM64, TM72, TM78, TM80, TM86, and/or TM88 antibodies; Bin 5: does not bind to a truncated TMEM106B comprising amino acids 122-210 of SEQ ID NO:1
Settings: competition for binding to truncated GST-TMEM106B (amino acids 122-210)

Row | Molecule | epitope bin
1 | B1 | Bin 4
2 | B2 | Bin 4
3 | B3 | Bin 4

Same assay, conditions: epitope bin number; pre-mix binning on truncated GST-TMEM106B

Row | Molecule | Binding Community/Bin
4 | B1 | 4
5 | B2 | 4
6 | B3 | 4

Reference: patent US20240166738A1 (priority 2021, published 2024)
